The text below walks through data of publication PMC6426777 (Frontiers in Immunology, 2019).

This experiment has as its target T1, recombinant wild-type C1q (human, UniProt P02745 23-245; P02746 28-253; P02747 29-245).
T1 construct: C1q A chain, human; C1q B chain, human; C1q C chain, human; Hexamer of A-B-C heterotrimers (18 chains); also called C1qWT; WT; source: purified from culture supernatant (IgG-ovalbumin aggregates, anti-FLAG M2 column); copies: 6 + 6 + 6
Description: SPR; Biacore 3000, 25°C; C1q variants immobilised on CM5 chips by amine coupling; partners injected at 20 μl/min in 50 mM Tris-HCl, 150 mM NaCl, 2 mM CaCl2, 0.005% surfactant P20, pH 7.4; BSA reference surface; global fit to 1:1 Langmuir model; apparent KD = kd/ka. Particulars: both partners purified. (In SPR one partner is held on a chip, and binding of the other changes the refractive index at the surface.)

T1 sequence (P02745 23-245, chain 1 of 3): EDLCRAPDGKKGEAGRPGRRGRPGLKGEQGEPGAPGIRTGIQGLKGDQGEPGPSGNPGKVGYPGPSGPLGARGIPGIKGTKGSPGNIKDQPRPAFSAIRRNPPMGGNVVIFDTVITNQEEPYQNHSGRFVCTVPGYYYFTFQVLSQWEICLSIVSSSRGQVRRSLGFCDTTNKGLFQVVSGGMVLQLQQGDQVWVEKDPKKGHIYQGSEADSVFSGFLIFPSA
T1 sequence (P02746 28-253, chain 2 of 3): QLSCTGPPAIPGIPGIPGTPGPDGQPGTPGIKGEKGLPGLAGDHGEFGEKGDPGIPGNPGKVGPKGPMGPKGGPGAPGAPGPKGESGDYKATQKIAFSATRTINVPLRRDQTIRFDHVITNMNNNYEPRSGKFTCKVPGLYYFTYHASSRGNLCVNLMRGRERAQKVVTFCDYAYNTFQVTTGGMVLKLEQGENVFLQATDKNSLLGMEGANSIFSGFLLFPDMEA
T1 sequence (P02747 29-245, chain 3 of 3): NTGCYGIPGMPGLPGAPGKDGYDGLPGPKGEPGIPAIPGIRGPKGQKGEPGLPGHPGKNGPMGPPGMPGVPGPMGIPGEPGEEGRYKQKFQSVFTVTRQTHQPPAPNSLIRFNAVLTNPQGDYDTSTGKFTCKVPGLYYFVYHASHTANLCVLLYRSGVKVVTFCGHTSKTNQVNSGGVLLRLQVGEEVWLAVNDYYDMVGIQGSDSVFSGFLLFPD

B1: recombinant human MASP-2 dimer (enzyme, UniProt O00187 16-686, looked up)
chain: TPLGPKWPEPVFGRLASPGFPGEYANDQERRWTLTAPPGYRLRLYFTHFDLELSHLCEYDFVKLSSGAKVLATLCGQESTDTERAPGKDTFYSLGSSLDITFRSDYSNEKPFTGFEAFYAAEDIDECQVAPGEAPTCDHHCHNHLGGFYCSCRAGYVLHRNKRTCSALCSGQVFTQRSGELSSPEYPRPYPKLSSCTYSISLEEGFSVILDFVESFDVETHPETLCPYDFLKIQTDREEHGPFCGKTLPHRIETKSNTVTITFVTDESGDHTGWKIHYTSTAQPCPYPMAPPNGHVSPVQAKYILKDSFSIFCETGYELLQGHLPLKSFTAVCQKDGSWDRPMPACSIVDCGPPDDLPSGRVEYITGPGVTTYKAVIQYSCEETFYTMKVNDGKYVCEADGFWTSSKGEKSLPVCEPVCGLSARTTGGRIYGGQKAKPGDFPWQVLILGGTTAAGALLYDNWVLTAAHAVYEQKHDASALDIRMGTLKRLSPHYTQAWSEAVFIHEGYTHDAGFDNDIALIKLNNKVVINSNITPICLPRKEAESFMRTDDIGTASGWGLTQRGFLARNLMYVDIPIVDHQKCTAAYEKPPYPRGSVTANMLCAGLESGGKDSCRGDSGGALVFLDSETERWFVGGIVSWGSMNCGEAGQYGVYTKVINYIPWIENIISDF
For the molecule B1, the Kd was 5.04 nM; the koff – broadly, the rate constant with which the complex falls apart – stood at 0.00234 s⁻¹; the kon (in general, the rate constant with which the complex forms) worked out at 463000 M⁻¹ s⁻¹.
